Residue numbers refer to the chain shown, from its start.
What was measured:
Conditions in all cases: protein: recombinant; tags: C-terminal Strep on PafC; copies: 1;1; label: FAM; single strand
PafBC WT = target: T1, PafBC WT (Mycobacterium smegmatis, UniProt A4ZHT0;A0QZ41 1-331;1-318); assay: EMSA; low micromolar affinity; ssDNA EMSA: 22.5 mM Hepes-KOH pH 7.8, 135 mM NaCl, 20 mM KCl, 5 mM MgCl2, 1 mM DTT, 37 C 15 min, 10 nM DNA, 0-16 uM PafBC; RNAP EMSA: 20 mM Hepes-NaOH pH 8, 100 mM K-acetate, 36 mM NaCl, 10 mM MgCl2, 2 mM DTT, 37 C 30 min
T1 sequence 1: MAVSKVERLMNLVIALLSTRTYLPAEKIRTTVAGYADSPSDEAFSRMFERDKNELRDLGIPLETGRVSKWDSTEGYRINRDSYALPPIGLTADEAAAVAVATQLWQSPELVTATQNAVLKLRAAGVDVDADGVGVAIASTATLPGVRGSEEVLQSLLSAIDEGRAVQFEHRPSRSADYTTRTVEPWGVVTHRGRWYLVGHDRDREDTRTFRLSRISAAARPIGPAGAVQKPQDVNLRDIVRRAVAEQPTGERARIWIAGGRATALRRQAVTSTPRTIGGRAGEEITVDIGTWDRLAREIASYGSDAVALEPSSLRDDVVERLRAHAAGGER
T1 sequence 2: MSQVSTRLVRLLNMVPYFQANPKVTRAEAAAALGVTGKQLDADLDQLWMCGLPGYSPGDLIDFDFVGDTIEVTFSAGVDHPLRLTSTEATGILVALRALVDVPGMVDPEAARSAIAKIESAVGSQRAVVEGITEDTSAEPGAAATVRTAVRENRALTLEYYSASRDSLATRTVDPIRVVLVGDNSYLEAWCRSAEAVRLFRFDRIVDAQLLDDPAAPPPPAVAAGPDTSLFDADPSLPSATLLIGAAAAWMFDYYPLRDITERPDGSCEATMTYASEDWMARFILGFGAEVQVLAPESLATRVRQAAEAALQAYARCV

PafBC, PafB Y196A = target: T2, PafBC, PafB Y196A (Mycobacterium smegmatis, UniProt A4ZHT0;A0QZ41 1-331;1-318, Y196A); assay: EMSA; up to 16 uM; ssDNA EMSA: 22.5 mM Hepes-KOH pH 7.8, 135 mM NaCl, 20 mM KCl, 5 mM MgCl2, 1 mM DTT, 37 C 15 min, 10 nM DNA, 0-16 uM PafBC; RNAP EMSA: 20 mM Hepes-NaOH pH 8, 100 mM K-acetate, 36 mM NaCl, 10 mM MgCl2, 2 mM DTT, 37 C 30 min
T2 sequence 1: T1 sequence 1 with Y196A
T2 sequence 2: T1 sequence 2

PafBC, PafB WYL variant = target: T3, PafBC, PafB WYL variant (Mycobacterium smegmatis, UniProt A4ZHT0;A0QZ41 1-331;1-318, R214A;PafB:R211A); assay: as above
T3 sequence 1: T1 sequence 1 with R214A
T3 sequence 2: T1 sequence 2

Binder: TTTTTTTTTTTTTTTTTTTT (ssDNA) [dT20 ssDNA]
- binding result (PafBC WT): binds
- binding result (PafBC, PafB Y196A): no binding
- binding result (PafBC, PafB WYL variant): no binding

From PMC11804915, “Single-stranded DNA binding to the transcription factor PafBC triggers the mycobacterial DNA damage response”
